B1: CPEB3 Ribozyme (parent)
chain: UAACAGGGGGCCACAGCAGAAGCGUUCACGUCGCAGCCCCUGUCAGAUUCUGGUGAAUCUGCGAAUUCUGCUGUAUAUCUC

Variants of: B1
Assay: self-cleavage, relative activity (ratio to wild type); higher = more cleavage; in vitro, sequencing
Method in brief: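 Relative activity was defined as the cleaved/total read fraction for a variant divided by the same fraction for the unmutated ribozyme. CPEB3 self-cleaving ribozyme libraries were made by rounds of error-prone PCR, barcoded, and transcribed in vitro with T7 RNA polymerase for 5 hours at 37°C, and cleavage ran through transcription plus a 15 min DNase I step before EDTA. Illumina sequencing of template-switched reverse transcripts gave the reads, and DNA sequencing mapped the barcodes. Averages come from three batches, using variants with at least 5 reads.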
Variant UAACAGGGGGCCACAGCAGAAGCGUUCACGUCGCAGCCCCUGUCAGAUCCUGGCGAAUCUGCGAAUUCUGCUGUAUAUCUC [U49C U54C] has a self-cleavage of 0.38. With UAACAGGGGGCCACAGCAGAAGCGUUCACGUCGCAGCCCCUGUCAGAUCCUGGGGAAUCUGCGAAUUCUGCUGUAUAUCUC [U49C U54G] the self-cleavage was 0.25. In the case of UAACAGGGGGCCACAGCAGAAGCGUUCACGUCGCAGCCCCUGUCAGAUCCUGGUGAAACUGCGAAUUCUGCUGUAUAUCUC [U49C U58A], the self-cleavage is reported as 0.14. Variant UAACAGGGGGCCACAGCAGAAGCGUUCACGUCGCAGCCCCUGUCAGAUCCUGGUGAACCUGCGAAUUCUGCUGUAUAUCUC [U49C U58C] has a self-cleavage of 0.24. UAACAGGGGGCCACAGCAGAAGCGUUCACGUCGCAGCCCCUGUCAGAUCCUGGUGAAUCAGCGAAUUCUGCUGUAUAUCUC [U49C U60A] gave a self-cleavage of 0.22. For UAACAGGGGGCCACAGCAGAAGCGUUCACGUCGCAGCCCCUGUCAGAUCCUGGUGAAUCCGCGAAUUCUGCUGUAUAUCUC [U49C U60C], the self-cleavage was 0.22. In the case of UAACAGGGGGCCACAGCAGAAGCGUUCACGUCGCAGCCCCUGUCAGAUCCUGGUGAAUCGGCGAAUUCUGCUGUAUAUCUC [U49C U60G], the self-cleavage is reported as 0.13. With UAACAGGGGGCCACAGCAGAAGCGUUCACGUCGCAGCCCCUGUCAGAUCCUGGUGAAUCUGCGAAAUCUGCUGUAUAUCUC [U49C U66A] the self-cleavage was 0.31. For UAACAGGGGGCCACAGCAGAAGCGUUCACGUCGCAGCCCCUGUCAGAUCCUGGUGAAUCUGCGAACUCUGCUGUAUAUCUC [U49C U66C], the self-cleavage was 0.25. Work on UAACAGGGGGCCACAGCAGAAGCGUUCACGUCGCAGCCCCUGUCAGAUCCUGGUGAAUCUGCGAAGUCUGCUGUAUAUCUC [U49C U66G] yielded a self-cleavage of 0.29. Variant UAACAGGGGGCCACAGCAGAAGCGUUCACGUCGCAGCCCCUGUCAGAUCCUGGUGAAUCUGCGAAUACUGCUGUAUAUCUC [U49C U67A] has a self-cleavage of 0.28. UAACAGGGGGCCACAGCAGAAGCGUUCACGUCGCAGCCCCUGUCAGAUCCUGGUGAAUCUGCGAAUCCUGCUGUAUAUCUC [U49C U67C] showed a self-cleavage of 0.23. Variant UAACAGGGGGCCACAGCAGAAGCGUUCACGUCGCAGCCCCUGUCAGAUCCUGGUGAAUCUGCGAAUGCUGCUGUAUAUCUC [U49C U67G] has a self-cleavage of 0.32. Variant UAACAGGGGGCCACAGCAGAAGCGUUCACGUCGCAGCCCCUGUCAGAUCCUGGUGAAUCUGCGAAUUCAGCUGUAUAUCUC [U49C U69A] has a self-cleavage of 0.25. Work on UAACAGGGGGCCACAGCAGAAGCGUUCACGUCGCAGCCCCUGUCAGAUCCUGGUGAAUCUGCGAAUUCCGCUGUAUAUCUC [U49C U69C] yielded a self-cleavage of 0.31. For UAACAGGGGGCCACAGCAGAAGCGUUCACGUCGCAGCCCCUGUCAGAUCCUGGUGAAUCUGCGAAUUCGGCUGUAUAUCUC [U49C U69G], the self-cleavage was 0.25. Work on UAACAGGGGGCCACAGCAGAAGCGUUCACGUCGCAGCCCCUGUCAGAUCCUGGUGAAUCUGCGAAUUCUGCAGUAUAUCUC [U49C U72A] yielded a self-cleavage of 0.26. UAACAGGGGGCCACAGCAGAAGCGUUCACGUCGCAGCCCCUGUCAGAUCCUGGUGAAUCUGCGAAUUCUGCCGUAUAUCUC [U49C U72C] gave a self-cleavage of 0.36. Variant UAACAGGGGGCCACAGCAGAAGCGUUCACGUCGCAGCCCCUGUCAGAUCCUGGUGAAUCUGCGAAUUCUGCGGUAUAUCUC [U49C U72G] has a self-cleavage of 0.26. Work on UAACAGGGGGCCACAGCAGAAGCGUUCACGUCGCAGCCCCUGUCAGAUCCUGGUGAAUCUGCGAAUUCUGCUGAAUAUCUC [U49C U74A] yielded a self-cleavage of 0.71. With UAACAGGGGGCCACAGCAGAAGCGUUCACGUCGCAGCCCCUGUCAGAUCCUGGUGAAUCUGCGAAUUCUGCUGCAUAUCUC [U49C U74C] the self-cleavage was 0.65. For UAACAGGGGGCCACAGCAGAAGCGUUCACGUCGCAGCCCCUGUCAGAUCCUGGUGAAUCUGCGAAUUCUGCUGGAUAUCUC [U49C U74G], the self-cleavage was 0.59. Work on UAACAGGGGGCCACAGCAGAAGCGUUCACGUCGCAGCCCCUGUCAGAUCCUGGUGAAUCUGCGAAUUCUGCUGUAAAUCUC [U49C U76A] yielded a self-cleavage of 0.49. In the case of UAACAGGGGGCCACAGCAGAAGCGUUCACGUCGCAGCCCCUGUCAGAUCCUGGUGAAUCUGCGAAUUCUGCUGUACAUCUC [U49C U76C], the self-cleavage is reported as 0.48. For UAACAGGGGGCCACAGCAGAAGCGUUCACGUCGCAGCCCCUGUCAGAUCCUGGUGAAUCUGCGAAUUCUGCUGUAUAACUC [U49C U78A], the self-cleavage was 0.46. UAACAGGGGGCCACAGCAGAAGCGUUCACGUCGCAGCCCCUGUCAGAUCCUGGUGAAUCUGCGAAUUCUGCUGUAUACCUC [U49C U78C] showed a self-cleavage of 0.42. UAACAGGGGGCCACAGCAGAAGCGUUCACGUCGCAGCCCCUGUCAGAUCCUGGUGAAUCUGCGAAUUCUGCUGUAUAGCUC [U49C U78G] showed a self-cleavage of 0.39. UAACAGGGGGCCACAGCAGAAGCGUUCACGUCGCAGCCCCUGUCAGAUCCUGGUGAAUCUGCGAAUUCUGCUGUAUAUCAC [U49C U80A] gave a self-cleavage of 0.51. In the case of UAACAGGGGGCCACAGCAGAAGCGUUCACGUCGCAGCCCCUGUCAGAUCCUGGUGAAUCUGCGAAUUCUGCUGUAUAUCCC [U49C U80C], the self-cleavage is reported as 0.61. Variant UAACAGGGGGCCACAGCAGAAGCGUUCACGUCGCAGCCCCUGUCAGAUCCUGGUGAAUCUGCGAAUUCUGCUGUAUAUCGC [U49C U80G] has a self-cleavage of 0.49. UAACAGGGGGCCACAGCAGAAGCGUUCACGUCGCAGCCCCUGUCAGAUGCUGGUGAAUCUGCGAAUUCUGCUGUAUAUCUC [U49G] showed a self-cleavage of 0.52. UAACAGGGGGCCACAGCAGAAGCGUUCACGUCGCAGCCCCUGUCAGAUGCUGGUGGAUCUGCGAAUUCUGCUGUAUAUCUC [U49G A56G] showed a self-cleavage of 0.35. UAACAGGGGGCCACAGCAGAAGCGUUCACGUCGCAGCCCCUGUCAGAUGCUGGUGUAUCUGCGAAUUCUGCUGUAUAUCUC [U49G A56U] showed a self-cleavage of 0.65. With UAACAGGGGGCCACAGCAGAAGCGUUCACGUCGCAGCCCCUGUCAGAUGCUGGUGAAUCUGCGGAUUCUGCUGUAUAUCUC [U49G A64G] the self-cleavage was 0.4.
